Paper PMC9426568, “Glucose-1,6-Bisphosphate, a Key Metabolic Regulator, Is Synthesized by a Distinct Family of α-Phosphohexomutases Widely Distributed in Prokaryotes” (mBio, 2022)

What was measured:
Sll0726 = target: T1, Sll0726 (Synechocystis sp. PCC 6803, UniProt P74643); test: G6PDH-coupled PGM assay, NADPH at […] nm; assay type: biochemical; details: inhibitor, 100 μM, varied Glc-1P, without Glc-1,6-BP; 10 mM MgCl2, pH 7.5, 30°C
T1 construct: gene pgm; recombinant, Strep-tagged, expressed in E. coli Rosetta-gami (DE3), purified
T1 sequence (P74643 1-567): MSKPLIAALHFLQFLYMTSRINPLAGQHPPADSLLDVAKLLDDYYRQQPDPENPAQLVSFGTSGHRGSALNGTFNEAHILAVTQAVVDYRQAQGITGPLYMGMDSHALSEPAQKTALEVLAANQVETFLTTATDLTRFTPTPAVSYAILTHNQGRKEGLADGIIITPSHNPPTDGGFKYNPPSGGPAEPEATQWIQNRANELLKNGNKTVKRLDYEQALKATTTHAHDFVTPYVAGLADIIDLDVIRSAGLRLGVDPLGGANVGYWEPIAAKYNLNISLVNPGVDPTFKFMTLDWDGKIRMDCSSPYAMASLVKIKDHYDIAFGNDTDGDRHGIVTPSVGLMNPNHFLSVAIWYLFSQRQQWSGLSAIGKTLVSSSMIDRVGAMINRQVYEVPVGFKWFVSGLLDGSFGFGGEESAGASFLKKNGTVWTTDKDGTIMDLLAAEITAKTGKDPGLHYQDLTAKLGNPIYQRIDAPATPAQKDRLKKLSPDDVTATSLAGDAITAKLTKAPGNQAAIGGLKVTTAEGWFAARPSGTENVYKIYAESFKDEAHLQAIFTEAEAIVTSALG

purified protein [1] = substrate: O=P(O)(O)O[C@H]1O[C@H](CO)[C@@H](O)[C@H](O)[C@H]1O; test: purified protein; assay type: biochemical, Synechocystis sp. PCC 6803; details: with 60 μM Glc-1,6-BP (activator), 10 mM MgCl2, 150 mM KCl, HEPES-KOH pH 7.5, 30°C
purified protein [2] = substrate: O=P(O)(O)OC[C@H]1O[C@H](OP(=O)(O)O)[C@H](O)[C@@H](O)[C@@H]1O; test: purified protein; assay type: biochemical, Synechocystis sp. PCC 6803; details: co-substrate 0.5 mM Frc-6P, 10 mM MgCl2, 150 mM KCl, HEPES-KOH pH 7.5, 30°C, lowest measurable concentration already saturating

O=P(O)(O)OC[C@H]1OC(O)(COP(=O)(O)O)[C@@H](O)[C@@H]1O (stereo partly drawn) [Frc-1,6-BP]
G6PDH-coupled PGM assay, NADPH at 340 nm (Sll0726): effect of different concentrations of Frc-1,6-BP on Sll0726 and observed major inhibition

B1: Sll0726 (Synechocystis sp. PCC 6803 substr. Kazusa) (protein)
chain: T1 sequence (P74643 1-567)
notes: recombinant, Strep-tagged, expressed in E. coli Rosetta-gami (DE3), purified
Km (purified protein [1]): 190 ± 40 µM
kcat (purified protein [1]): 415 ± 30.6 s⁻¹
kcat/Km (purified protein [1]): 3.04e+06 M⁻¹ s⁻¹

B2: Slr1334 (Synechocystis sp. PCC 6803 substr. Kazusa) (protein)
chain: MVYTPAPIKFGTDGWRGVIAAEFTFERVVLVAAAAAQVLAAEFGSSGREHRLIVGYDRRFMAEQFALLVAQTVQELGFEVWLSESYAPTPAFSWAAHHENALGALVLTASHNPANYLGLKVKGAFGGSVGSDVTEKIEAQLQNSLPQPQAGGSLQYFDPWPSYCQGLQAKVNVQPIREAVQQGKLRVFADVMHGAAASGLERLLGCPIDEINGDRDPLFGGASPEPLPKYVPKLLAALQTAAKAGGPELRVGLIFDGDADRIAAVDGQGNFLSSQGLIPILIYHLATQKGLQGEIVKTVSGSDLIPKLAELYGIPLTETAIGYKYIADRMLTSPVLIGGEESGGIGYGGHIPERDALLSALYVLETVVQSQQDISEQYGRLQEKVCFVSEYDRIDLPLASMDVRTALVQTLNENPLTAIAGEQVTDLLTTDGYKFRMAGGGWLLIRFSGTEPLLRLYCEAPTSSRVQTVLHWAKDWANGVTPAKPAQSSH
notes: recombinant, expressed in E. coli Rosetta-gami (DE3), purified
kcat (purified protein [2]): 1.2 ± 0.03 s⁻¹
kcat/Km (purified protein [2]): 600000 M⁻¹ s⁻¹
Km (purified protein [1]): 90 ± 20 µM
kcat (purified protein [1]): 14.4 ± 0.7 s⁻¹
kcat/Km (purified protein [1]): 158000 M⁻¹ s⁻¹
